In the DeepSol protein solubility set:

Assay: soluble on expression in E. coli; label from the status in PepcDB or PDB records

Sequence | soluble on expression in E. coli
MPTYEELSQAVFEGDEAQVVELTRSLLSGGAEPLEVINKGLIAGMDRVGVLFKNNEMFVPEVLMSANAMNAGVEVVKQSQQAFDMPSVGKIVLGTVKGDLHDIGKNLVAMMLESGGFTVYNLGVDIEPGKFVEAVKKYQPDIVGMSALLTTTMMNMKSTIDALIAAGLRDRVKVIVGGAPLSQDFADEIGADGYAPDAASATELCRQLLE | soluble
MGSDKIHHHHHHINVYFRGPRTHRMPQWVRVVFLQFLPKLVCMKRPKSASERSAVRSGMAQLPGVGQFTLSPSAHHPLCPSADDRTTTIRNTASNETSAYYPLSTDALRAIDAIEYITEHLKRDEQHKSFRDDWKYVAMIIDRL | not soluble
MRITASLRTFCHLSTPHSDSTTSRLWIDEVTAVARQRDRDSFMRIYDHFAPRLLRYLTGLNVPEGQAEELVQEVLLKLWHKAESFDPSKASLGTWLFRIARNLYIDSVRKDRGWVQVQNSLEQLERLEAPVDRTLDYSQRQEQQLNSAIQNLPTDQAKVLRMSYFEALSHREISERLDMPLGTVKSCLRLAFQKLRSRIEES | not soluble
MSEITTLQPSLLWKWFDQICAIPHPSHYEDTLANFIVNWAKEKHFFVERDEVGNVLIRKPATKGMENHTPVVLQAHLDMVPQANEGNPHDFTKDPIQPYIDGEWVKARGTTLGSDNGIGLASTLAVLESNDLAHPPLEVLLTMTEETGMDGAKGLRHNWLQSEILINTDTEEIGEIYIGCAGGINANFEIPVQYETNTFEHSAQITLKGLRGGHSGGDIHTGRANAIKVLARVLAKLSQNQPHFALSEIRGGSIRNAIPREAAAVLAFNGDVKTIESAVENLAVVLKEELAIAEPNFTLFVESAEKAPTVFTAQSTQTVINALNVLPNGVIRNSDVVKNVVESSLSVGVLKTEGNVVKSTILVRSLIESGKYYVTEMLSSLAILANAKVEFSAPYPGWQPVNDSTILDVTRKHYAEVLGEQPVVKVIHAGLECGLLKEHYPNIEMISVGPTIRNAHSPDEKVEIATVQTYWDLLTRVLADIPAK | soluble
MVNKDVKQTTAFGAPVWDDNNVITAGPRGPVLLQSTWFLEKLAAFDRERIPERVVHAKGSGAYGTFTVTKDITKYTKAKIFSKVGKKTECFFRFSTVAGERGSADAVRDPRGFAMKYYTEEGNWDLVGNNTPVFFIRDAIKFPDFIHTQKRDPQTNLPNHDMVWDFWSNVPESLYQVTWVMSDRGIPKSFRHMDGFGSHTFSLINAKGERFWVKFHFHTMQGVKHLTNEEAAEIRKHDPDSNQRDLFDAIARGDYPKWKLSIQVMPEEDAKKYRFHPFDVTKIWYTQDYPLMEVGIVELNKNPENYFAEVEQAAFTPANVVPGIGYSPDRMLQGRLFSYGDTHRYRLGVNYPQIPVNKPRCPFHSSSRDGYMQNGYYGSLQNYTPSSLPGYKEDKSARDPKFNLAHIEKEFEVWNWDYRADDSDYYTQPGDYYRSLPADEKERLHDTIGESLAHVTHKEIVDKQLEHFKKADPKYAEGVKKALEKHQKMMKDMHGKDMHHTKKKK | soluble
GPGSMLRRTLRRLMPSDAIGSVHPDVLWGYQQGQYAGPGWANFVKSLPLETLAMQGGSTMANLNDRAGTFLDPEDPRHPLALMQFGIMGKMDGTFHQLAYGDFGRVPKGSRLMQVLYENYLEPFSMNRVCAQLYFYQKVPNNYHASVDATAEYVGQTASLVGQVVVGLGACIMEGVTIRADTNCVYIAEGVQILENTCIMSDAPTDLLAYQRHELLNPYQQWDGMDGVTRIMPNTIIESNCYLDGCSIGSFNRIGHNTKIMKGVTTGIMVHIMPGSVVTADTKIGDGELWGGAPACKIGEVSKFEYKRPYYASLLHRESVAESYRNMSRYGDQFVHYMNAMGQLETLMIHYEDHVTPGIKAKVRDFEEGREPFHHTITRIAQGWSPANRPDDKNFAMAPPAPGVKLFAEHNTDSSPSEWNGSYANITNIFNDFRW | not soluble
KVVAKGLGLSKAYVGQKSSFTVDCSKAGNNMLLVGVHGPRTPCEEILVKHVGSRLYSVSYLLKDKGEYTLVVKWGHEHIPGSPYRVVVP | soluble
MSEGSNVLVSIILVNYNGADILPDCLNSIDKFISKDNCEILLVDNASQDNSYELVAQDFPDVKIVRLPKNYGFGAGNNAGAKIAKGKFLLLLNTDTILTTNILPHLIDLMRENPDVGIIGTKLVFPDETFQISFAYTIGIKGEYKSRKLHEYAEDKSKLNSLEQEFNTIKEVDIVVGAALFIRADLFHSVGGFDEKFFIYFEDADLCRRVQNQGYKILYTPQVSLIHIRGHSMKKNANATVLEHHHHHH | not soluble
MGSDKIHHHHHHMTVLQLPIIDISGLTCQRNNSSDVVAQQIKQACQDYGFFYIVGHGVDEQLQTQLEHLSQEFFAQDQETKLKISMALGGRAWRGYFPVGNELTSGRPDLKEGIYFGSELKDNHPLVKAGTPMHGRNLFPSNIPQFRETVLEYIDSMTKLGHILMAGIALSLDLDKSYFAERYTKDPLILFRIFNYPPNLGSQSEWGVGEHTDYGVLTILKQDNIGGLQVKSKSGWIDAPPIPGSFVCNIGDMLDRMTRGLYRSTPHRVRNLSTSNRLSFPFFFDPNFNVEVKPIDLKDVVVKDDQSDRWDKASVHEFRGTYGDYLLKKVSKVFPELRQKVL | not soluble
MGSDKIHHHHHHMTNAVYTLIVRALSGIVSERAAETLLRAALREQGLTAEGVTAGEMQRVLSGPLLTRLSGVLPPERARAELGNLAAQLQKHYPKAPTLFSSPAATWDETTSTHWEDIDFSADDFEFDDPEYTATPPERQYALGTAAGQEALIQDLGRIPGVQGVMVCRASGEVLRERALSGSRNLSSVIAATALLFQKRALNLMSADMGGQTVCMRPVGAYCVAVVAGPQVNIGRLLAELQQVREAA | not soluble
KPNWCPGCGDFSVQAAIQRAAANVGLEPDQLAVISGIGCSGRISGYINAYGFHGVHGRVLPIAQGVKMANRDVTVIASGGDGDGFAIGMGHTVHAIRRNINITYIVMDNQIYGLTKGQTSPRSDVGFKTKSTPSGSVESALNVMEMALTAGATFVAQSFSSDLKELTALIEKGINHNGFSLINVFSPCVTFNKVNTYDWFKENLTKLSDLEGYDPQNRMVAMQTLMEHNGLVTGLIYQNDKQPSYQDLIAGYDEKPLADQDLTIDEGKFKELVGEF | not soluble
MQPLLEAQKKLLPDLLDVMQKRYQILHSISLMAPIGRRALAASLGMSERVLRSETEFLKGQNLLSADVSGMRLTEEGQALLHTLNDLMREALGLKELEAALQEQLGIPRVIVVAGDSDRSPWVKKEMGRACVACMKELLEPGDIVAVAGGTTMAAVAEMMTPDSKLRDVLFVPARGGLGEDVENQANTICAKMAEKAMGRYRLLHVPDQLSDEAYASLVEEPAVKEVLELIQSCRMVVHGIGEAVTMAKRRKTPPVEMEKIIARHAVAEAFGYYFNEYGDVVHKVKTVGIQLEHLPHVEHVIAVAGGASKAKAIRAYMKRAPHSLLVTDEGAAKAFVGE | not soluble
MGHHHHHHHHHHSSGHIEGRHMGKNVLLLGSGFVAQPVIDTLAANDDINVTVACRTLANAQALAKPSGSKAISLDVTDDSALDKVLADNDVVISLIPYTFHPNVVKSAIRTKTDVVTSSYISPALRELEPEIVKAGITVMNEIGLDPGIDHLYAVKTIDEVHRAGGKLKSFLSYCGGLPAPEDSDNPLGYKFSWSSRGVLLALRNSAKYWKDGKIETVSSEDLMATAKPYFIYPGYAFVCYPNRDSTLFKDLYHIPEAETVIRGTLRYQGFPEFVKALVDMGMLKDDANEIFSKPIAWNEALKQYLGAKSTSKEDLIASIDSKATWKDDEDRERILSGFAWLGLFSDAKITPRGNALDTLCARLEELMQYEDNERDMVVLQHKFGIEWADGTTETRTSTLVDYGKVGGYSSMAATVGYPVAIATKFVLDGTIKGPGLLAPYSPEINDPIMKELKDKYGIYLKEKTVA | soluble
MDFHIDEKYKGMGKGRTFLIKTYGCQMNAHDTEVMAGILNALGYSATSDINEADVILINTCAIRENAENKVFSEIGNLKHLKKERPDCLIGVCGCMSQEESVVNKILKSYQNVDMVFGLEHHHHHH | not soluble
QVPENNGYAGDKPLKTYIHDTVKGDLYYTAGSSYYSGKAYPGDTYKVNHNFDLPEGATIKLARLYNYWTWSSEGMEGRNPEMKLSFDGQELEPDREYSDRKGWGSYDYPSGTWAYDVSSCITGSGTFTTEIENTGPDASCVCIEGVGLLIVYEDPDGRNIEYWINEGADELNSQMDENGSPLYYTAPNQTICEMLRPALQFPIRSATLWTITQSGNWENNTLIVNDKKFTGICDGKPYPDLEIDKRNVTDCLKAGENIILFQASGDYVISSGSFLVVEKDLLAEESKSSTEEASEKSEETGSTPETSGTESKKAPGFGFVFAPALLTGRKLVSGLRDK | not soluble
MGSDKIHHHHHHMKWYADYLSIYDKPFTQAPQAVINQVKDKVRQLATHAPLVSVVAIAHNEEKRILSCLWSLCENQHNYPVEILVINNHSTDHTEEVLKELGVTYFNEYRKGPGFARQCGLNHARGKYHLCIDADTLYPPQYISTMIKVLQDKEVAGAYALWSFLPNEHHLGLFFYETLRDLYLKIQNLNRPELNVRGMAFAFHTETARKEGFRTDILRGEDGSLALALKKYGKLRFVTARKARVLTGYGTISADGSLFSSFKKRAIKGLRSFTALFYSKNNYEDEDSNLIK | not soluble
MGSDKIHHHHHHADLQSNFLKMLVTQMNNQDPLNPMDNAQLTSQLAQISTVSSMQTMNSTLTQLLNQTSASRAMDSAALIGRTVMVPGSQFSVKDGVAGQFGVDLPSTADAVTVNVLDAHGNVVRTIDMKGQTAGVHDIAWDGKNDAGVAVADGDYSFKVSATANGTSVQPVALVYGKVNSISGDSSGVLVDVGNGQQANVDDVRRIL | not soluble
MGSDKIHHHHHHMVMEYELRTPLVKDQILKLKVGDVVYITGEIFTARDEAHARALEWMEEGKELPFSFDKGVVYHCGPLVKKNDEWRVVSAGPTTSARMNPFTPKILEKVECMGIIGKGGMSEEVVEAMRGKAAYFAFTGGAGALAAMSIKKVKGVVWEDLGMPEAVWLLEVERFGPCIVAIDAHGNSLYRR | soluble
MATADVKSTVPHMDMDRGGAFDFSNCIRNQAMCKMGGKAPKLTSTGTTIVAVAFKGGLVMGADSRATAGNIIADKHCEKVHKLTESIYACGAGTAADLDQVTKMLSGNLRLLELNTGRKARVITALRQAKQHLFNYQGYIGAYLLIGGVDPTGPHLYMCSANGTTMAFPFTAQGSGSYAAITILERDFKVDMTKDEAEKLVQRALEAGMHGDNASGNSLNLVIIEPSETVFKGPIVPEFCKRPEPNDLVYKFQAGATKVLKHKTYKYDVVESMDITH | not soluble
MGSDKIHHHHHHMEPIMRNPEDALLDSWHQNAQAWIDAVRHGAIESRRQVTDQAILLAILGRQPERVLDLGCGEGWLLRALADRGIEAVGVDGDRTLVDAARAAGAGEVHLASYAQLAEAKVPVGKDYDLICANFALLHQDIIELLSAMRTLLVPGGALVIQTLHPWSVADGDYQDGWREESFAGFAGDWQPMPWYFRTLASWLNALDMAGLRLVSLQEPQHPQSAVPQSLLMVAERH | not soluble
MGSDKIHHHHHHMSILVPEQVREALDVHVVSFLGGRLNKHWLVDVCGHKLVLRRWAADREDAGYERDLRQAIRASGWPVARDVTALTEIAGELWSLAEFLPGEPHPEKNSAAELSLRGRLMAEFHQVTASLNPGRRKHWRLPDEILSDDHLEQVFEHCPDVRLRRLLFWHLQRGRQLAAGLPWSEQSLQLIHGDFTPWNLLYREGQLSGLLDCEMSRPEYRISEFALSWRGRYDALIHAYHAVSPLSAPEWNMLTPAWWALLLEGAYRNLVSGTEDQGWTAGMLLRRSPLMGIESCPC | not soluble
